This note sets out measurements from the supplement of paper PMC9112550, “Optimization of the antimicrobial peptide Bac7 by deep mutational scanning” (BMC Biology, 2022).
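Further: peptides expressed intracellularly from a pBAD plasmid library in pooled LB shake-flask culture, induced with 0.3% L-arabinose, DNA abundance read by NGS, three biological replicates, DESeq2 with apeglm shrinkage.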

In the data set the test system is Escherichia coli TOP10. The experiment in a line: shrunken log2 fold change of peptide-encoding DNA abundance (4.5 h post-induction vs induction); higher = less antimicrobial activity (less host growth inhibition). The note with it: time post-induction: 4.5 h; library: site-saturation at positions 5, 18, 19, 20.
Turning to RRIRVRPPRLPRPRPRPMMSPRP, the “shrunken log2 fold change” value turned out to be 0.00438. In the case of RRIRTRPPRLPRPRPRPWWWPRP, the “shrunken log2 fold change” value is -0.0964. The result for RRIRQRPPRLPRPRPRPIENPRP reads 0.219; that for RRIRGRPPRLPRPRPRPEHAPRP, 2.78; that for RRIRDRPPRLPRPRPRPSDMPRP, -0.307. The result for RRIRNRPPRLPRPRPRPDTSPRP reads -0.0648; that for RRIRPRPPRLPRPRPRPCPGPRP, -0.0306; that for RRIRSRPPRLPRPRPRPGSVPRP, -0.0129. The same measure for RRIRWRPPRLPRPRPRPDGAPRP: 0.227. On to RRIRGRPPRLPRPRPRPYQLPRP, for which the “shrunken log2 fold change” value was 0.147.

As for RRIRYRPPRLPRPRPRPHDTPRP, the “shrunken log2 fold change” value was -0.313. The result for RRIRRRPPRLPRPRPRPVHYPRP reads 0.0593; that for RRIRCRPPRLPRPRPRPKTRPRP, 0.305; that for RRIRCRPPRLPRPRPRPFSYPRP, -0.947. The same measure for RRIRERPPRLPRPRPRPAMRPRP: 0.59; for RRIRYRPPRLPRPRPRPIHTPRP: -0.379; for RRIRCRPPRLPRPRPRPGDYPRP: -0.081.

As to RRIRARPPRLPRPRPRPSSPPRP, the “shrunken log2 fold change” value turned out to be 0.0282.

Regarding RRIRRRPPRLPRPRPRPLNRPRP, the “shrunken log2 fold change” value is -0.169. Turning to RRIRERPPRLPRPRPRPETIPRP, the “shrunken log2 fold change” value is -0.0222. As to RRIRMRPPRLPRPRPRPSHEPRP, the “shrunken log2 fold change” value is 0.267. On to RRIRFRPPRLPRPRPRPNSCPRP, for which the “shrunken log2 fold change” value was -0.895. For RRIRMRPPRLPRPRPRPDRTPRP, the “shrunken log2 fold change” value came to 0.52. As for RRIRERPPRLPRPRPRPGPHPRP, the “shrunken log2 fold change” value was found to be 0.00422. Consider RRIRGRPPRLPRPRPRPYELPRP, for which the “shrunken log2 fold change” value is -0.036. The result for RRIRCRPPRLPRPRPRPAQTPRP reads 0.0194; that for RRIRVRPPRLPRPRPRPGRSPRP, 0.649; that for RRIRHRPPRLPRPRPRPACKPRP, -0.164. The same measure for RRIRDRPPRLPRPRPRPDLVPRP: 1.16. Turning to RRIRARPPRLPRPRPRPHGCPRP, the “shrunken log2 fold change” value was 0.128. The same measure for RRIRYRPPRLPRPRPRPEHDPRP: 0.0965; for RRIRQRPPRLPRPRPRPNFAPRP: 0.24. Take RRIRQRPPRLPRPRPRPAGFPRP: the “shrunken log2 fold change” value is 0.266.

On to RRIRNRPPRLPRPRPRPHLPPRP, for which the “shrunken log2 fold change” value worked out at 0.0211. For the sequence RRIRFRPPRLPRPRPRPCVRPRP, the “shrunken log2 fold change” value was -0.0911. Take RRIRVRPPRLPRPRPRPQRGPRP: the “shrunken log2 fold change” value stood at 0.198.

In the case of RRIRLRPPRLPRPRPRPKTGPRP, the “shrunken log2 fold change” value turned out to be 0.25. Take RRIRSRPPRLPRPRPRPWELPRP: the “shrunken log2 fold change” value stood at 0.637. Turning to RRIRIRPPRLPRPRPRPRVGPRP, the “shrunken log2 fold change” value was 0.334. For the sequence RRIRSRPPRLPRPRPRPTMYPRP, the “shrunken log2 fold change” value is -0.247.

For RRIRNRPPRLPRPRPRPSVWPRP, the “shrunken log2 fold change” value is 0.228. On to RRIRWRPPRLPRPRPRPCNIPRP, for which the “shrunken log2 fold change” value was -0.133. For the sequence RRIRVRPPRLPRPRPRPPQKPRP, the “shrunken log2 fold change” value came to 0.23. Turning to RRIRQRPPRLPRPRPRPHPVPRP, the “shrunken log2 fold change” value came to 0.0674. The same measure for RRIRPRPPRLPRPRPRPKTLPRP: -0.0149.

For RRIRPRPPRLPRPRPRPVPFPRP, the “shrunken log2 fold change” value is -0.303. On to RRIRHRPPRLPRPRPRPDIPPRP, for which the “shrunken log2 fold change” value was -0.193.

As to RRIRVRPPRLPRPRPRPNQYPRP, the “shrunken log2 fold change” value was -0.864. Take RRIRYRPPRLPRPRPRPTWNPRP: the “shrunken log2 fold change” value was -0.424.

RRIRKRPPRLPRPRPRPMFCPRP: the “shrunken log2 fold change” value is 0.0792.
